Measured values reported in US11827690B2, “ApoC-II mimetic peptides” (THE UNITED STATES OF AMERICA, as represented by the …, priority 2017, dated 2023).
Non-standard residues stand in square brackets, D forms with d. No end group written: not given here. Nle = CCCC[C@H](N)C(=O)O

Tests used:
[1] = biological target: T1, LPL inhibited by apoC-III (Bos taurus, UniProt P11151); test: LPL assay using human apoC-II deficient plasma as substrate with recombinant apoC-III; assay type: biochemical; details: 25 μM apoC-III, FIG. 50
T1 sequence (P11151 29-478): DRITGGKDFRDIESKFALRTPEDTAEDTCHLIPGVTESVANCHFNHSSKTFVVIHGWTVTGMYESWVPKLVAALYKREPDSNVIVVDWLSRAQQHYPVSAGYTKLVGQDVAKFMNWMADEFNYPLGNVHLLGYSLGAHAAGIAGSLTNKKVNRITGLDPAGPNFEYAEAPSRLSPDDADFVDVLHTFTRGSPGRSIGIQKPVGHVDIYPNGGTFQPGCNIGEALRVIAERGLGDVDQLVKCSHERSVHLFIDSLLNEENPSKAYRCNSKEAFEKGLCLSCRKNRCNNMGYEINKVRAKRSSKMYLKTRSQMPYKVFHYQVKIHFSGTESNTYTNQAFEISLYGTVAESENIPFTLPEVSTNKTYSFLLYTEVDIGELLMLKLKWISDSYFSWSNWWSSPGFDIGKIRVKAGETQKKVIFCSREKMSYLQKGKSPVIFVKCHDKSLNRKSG
Protocol: (§1) LPL activity assay: 10 μL of Intralipid, human plasma sample, or mouse plasma sample was added in each well using repeater pipette. 10 μL (or 15 μL in the wells with no LPL control) of PBS and 10 μL of 1% BSA was added in each well using repeater pipette. 10 μL of peptides were added to corresponding wells in vertical triplicates (lowest concentration is on a left, highest is on the right). The plate was spun down at 1000 RPM for 10 seconds to mix and to remove the solutions from the wall of each well. The plate was put on ice and 5 μL of LPL was added using repeater pipette. The plate was spun down again at 1000 RPM for 10 seconds. The plate was covered and put back on ice for an incubation of 30 min. The plate was then moved to 37° C. and incubated for 1 hour.
(§2) Free fatty acids (NEFA) assay: 45 μL of 5 nmoL standard and 0 nmoL control (0.2% BSA) were added to corresponding wells. 225 μL of reagent A was added in each well using the reagent tray and 12-channel pipette. The plate was incubated for 10 min before 75 μL of reagent B was added to each well using the reagent tray and 12-channel pipette. The plate was not covered due to the high volume. The absorbance at 550 nm and 660 nm was measured.
LPL assay was performed using Intralipid, high TG human plasma (1:50 dilution), or apoC-III transgenic mouse plasma (1:50 dilution). When Intralipid was used as a substrate, 25 or 50 μM recombinant ApoC-III was added as an inhibitor. When the high TG human plasma was used as a substrate, 25 or 50 μM recombinant ApoC-III was added as an inhibitor with or without pre-incubation at 37° C. for 1 hour. An apoC-II mimetic peptide was added at various concentrations.

bovine LPL [2] = biological target: T2, bovine LPL (Bos taurus, UniProt P11151); test: in vitro LPL assay using hypertriglyceridemia patient sera as substrate; assay type: biochemical
T2 sequence (P11151 29-478): T1 sequence (P11151 29-478)
Protocol: (§3) Preparation of LPL: frozen stock of 10 μL of 0.5 mg/mL bovine LPL was used and diluted 1:100 (10 μL+990 μL of PBS).
(§4) Preparation of free fatty acid (NEFA) assay: NEFA reagents were purchased from Wako Diagnostics, Wako Life Sciences, Inc. Reagent A was prepared by mixing Coloring Reagent A with Solvent A (225 μL per well). Reagent B was prepared by mixing Coloring Reagent B with Solvent B (75 μL per well). 5 nmoL oleic acid standard was prepared by diluting 20 μL of 1 mM oleic acid stock (WAKO NEFA standard solution) with 180 μL of 0.2% BSA.
as §1, §2

bovine LPL [3] = biological target: T2, bovine LPL; test: in vitro LPL assay using apoC-II deficient patient sera as substrate; assay type: biochemical
Protocol: as §3
Preparation of 20% Intralipid: 2000 mg/dL TG Intralipid was used to prepare 3 mg/dL TG Intralipid by diluting 1.5 μL of the stock with 998.5 μL PBS, or by diluting the stock 1:10 first and then mixing 15 μL of the diluted stock with 985 μL PBS. When apoC-II deficient human serum was used as a substrate, a frozen 10 μL aliquot of 1711 mg/dL (TG) was diluted by adding 990 μL PBS (1:100 dilution).
as §4, §1, §2

[4] = test system: chylomicrons isolated from human plasma; test: ApoC-III displacement study in chylomicrons isolated from human plasma; assay type: binding
Protocol: VLDL or chylomicrons isolated from human plasma were incubated with an apoC-II mimetic peptide for 1 hour at 37° C. and washed 3 times with PBS using spin filter with 100 kDa cutoff membrane. Supernatants were brought to the original volume with PBS and loaded to 4-12% Bis-TRIS SDS PAGE gel. ApoC-I, apoC-II, apoC-III, and apoE bands were identified by their corresponding size.

[5] = test system: VLDL isolated from human plasma; test: ApoC-III displacement study in VLDL isolated from human plasma; assay type: binding
Protocol: VLDL or chylomicrons isolated from human plasma were incubated with an apoC-II mimetic peptide for 1 hour at 37° C. and washed 3 times with PBS using spin filter with 100 kDa cutoff membrane. […] ApoC-I, apoC-II, apoC-III, and apoE bands were identified by their corresponding size.

apoC-II knockout mice = test: plasma lipids of apoC-II knockout mice after peptide injection; assay type: in vivo
Protocol: C57Bl/6 mice (wild-type), apoC-II knockout (apoC-II KO) mice, and apoC-III transgenic mice were used for in vivo study. The C57Bl/6 mice (wild-type) were purchased from Taconic Biosciences Inc. The apoC-II KO mice were created as described in Sakurai et al., J Pharmacol Exp Ther 356:341-353, 2016. The apoC-III transgenic mice were generated by overexpressing human apoC-III in C57Bl/6 mice. See Qu et al., J. Lipid Res. 48:1476-1487, 2007.
Mice were fasted overnight (approximately 12 hours) before the study and 6 hours during the study, the next day. The apoC-II mimetic peptides were synthetically produced and free of biological contamination (not available as FDA approved compounds/treatment). […] W.) administered either subcutaneous injection (S.Q. or S.C.), intraperitoneal injection (I.P.) or intravenous injection (I.V.) (in a sterile, pharmaceutical grade PBS solution at a volume ≤200 μL) as described in Sakurai et al., J Pharmacol Exp Ther 356:341-353, 2016.

LPL activation (bovine LPL [2]; patient sera TG about 1000 mg/dL to about 1700 mg/dL, FIGS. 15A-D): activated LPL in vitro | LPL activity (bovine LPL [2]; sera of patients with high levels of apoC-III protein, FIG. 27): increased the LPL activity | affinity for chylomicrons compared with the apolipoproteins [4]: higher affinity | affinity for the VLDL compared with the apolipoproteins [5]: higher affinity | apoC-III displacement in VLDL ([5]; SDS PAGE): capable of displacing apoC-III
Substance: DYLKEVFEKLRDLYEKFTAAnLSTYTGIFTDQVLSVLKGEE (DYLKEVFEKLRDLYEKFTAA[Nle]STYTGIFTDQVLSVLKGEE) [Delta6]
effect on inhibition of LPL by apoC-III [1]: overcame the inhibitory effect of apoC-III and facilitated lipolysis | LPL activation compared with full length apoC-II protein (bovine LPL [3]; 10 pM to 10 μM, FIG. 51): activated LPL in vitro more efficiently than the full length apoC-II protein | promoting TG hydrolysis in the presence of LPL (bovine LPL [3]; FIG. 6): capable of promoting TG hydrolysis in the presence of LPL | efficiency compared with native apoC-II protein (bovine LPL [3]; at lower concentrations, FIG. 6): worked more efficiently than the native apoC-II protein | TG hydrolysis (bovine LPL [3]; concentrations from 100 pM to 10 nM, FIG. 14): exhibited the ability to promote TG hydrolysis in a dose dependent matter | plasma TG (apoC-II knockout mice; 0.25, 0.5, and 1 μmol/kg of body weight intraperitoneally, all doses, FIG. 23): rapid and marked reduction of plasma TG | plasma TG (apoC-II knockout mice; intraperitoneal injection): rapid and marked reduction of plasma TG | total cholesterol level (apoC-II knockout mice; intraperitoneal injection): decrease in the total cholesterol level
